According to patent US20230039279A1, “INFLAMMATION-RESPONSIVE ANTI-INFLAMMATORY HYDROGELS” (Nanyang Technological University, priority 2019, published 2023):
Entries after “also recorded” stand apart in the source; their conditions may differ.

Legend:
[1] = tested on: RAW 264.7 murine macrophages; experiment: WST-1 relative metabolic activity of macrophages treated with hydrogel releasates; assay type: cell-based; settings: 0.6 mg/mL freely dissolved drug, equivalent dosage; 72 hours treatment
Method: RAW 264.7 murine macrophages were cultured in high glucose DMEM (Gibco Laboratories) supplemented with 10% FBS (Gibco Laboratories), and 1% penicillin/streptomycin (Gibco Laboratories) at 37° C. in 5% CO2 atmosphere. RAW 264.7 macrophages at passages of 20-30 were seeded in 96-well plates (Corning®) at an initial seeding density of 2×10^4 cells/well and incubated at 37° C. for 24 hours. A volume of 100 μL of each hybrid hydrogel (GEL-iP and scrGEL-iP) fabricated with 1.7% (w/v) of PEG and 5% (w/v) of ibuprofen-loaded PLGA microparticles was incubated in 500 μL of phenol red-free DMEM (Gibco Laboratories) culture medium for 2 hours in the presence and absence of 3 μg/ml of MMP-9 (FIG. 4A). […] Afterwards, the releasates were removed from the treated macrophages; and the in vitro metabolic activity of treated cells was evaluated using WST-1 cell proliferation assay (Abcam) as per manufacturer's protocol. […] A volume of 100 μL of this medium was then transferred into a new 96-well plate; and its absorbance at 450 nm and 690 nm was recorded using a microplate reader (SpectraMax M5). To calculate relative metabolic activity, all the absorbance values at 450 nm were subtracted by the values at the reference wavelength of 690 nm and the background absorbance to achieve corrected absorbance values. Afterward, the relative metabolic activity was calculated as follows: […]

[2] = target: T1, MMP-9 (Homo sapiens, UniProt P14780); experiment: MMP-9 cleavability of hybrid hydrogels (released particles seen under optical microscope); assay type: biochemical; parameters: purchased Merck; settings: 3 μg/ml MMP-9 in PBS, 37° C., 20 hours
Method: Each hybrid hydrogel of 20 μL volume in a 500 μL Eppendorf tube was incubated at 37° C. with 3 μg/ml of MMP-9 (83 kDa, Merck) in PBS buffer (DPBS/modified, without calcium and magnesium, HyClone™). In a control experiment, another hybrid hydrogel with the same composition was immersed in PBS buffer without MMP-9. After 20 hours of incubation, the medium surrounding the hybrid hydrogel was sampled onto a cover slip and observed under an optical microscope (Olympus CKX53SF, Japan) to inspect for the presence of released particles.
The selected concentration of MMP-9 is within the range of MMP-9 expression in clinical wound fluids and synovial fluids of patients with rheumatoid arthritis and osteoarthritis [Ladwig, G. P. et al. Wound Repair and Regeneration 10(1) 26-37 (2002); Li, Z. et al. Journal of Diabetes and its Complications 27(4) 380-382 (2013)]. In a typical successful cleavage by MMP-9, the photographs of vials B1 and B2 in FIG. 2 show the appearance of a hybrid hydrogel, which had the same composition as that in vial A1, after prolonged exposure to a buffer with and without MMP-9 respectively. […] The optical microscope image C1 verified the presence of ibu-PLGA particles in the resulting liquid mixture of vial B1 confirming the successful digestion of this hybrid hydrogel by MMP-9. In contrast, MMP-9-free PBS buffer added after gelation was observed as a clear liquid phase in vial B2. The optical microscope image C2 also confirmed the absence of any released lbu-PLGA particles in vial B2.
Target sequence in this assay (P14780 107-707 limits assumed): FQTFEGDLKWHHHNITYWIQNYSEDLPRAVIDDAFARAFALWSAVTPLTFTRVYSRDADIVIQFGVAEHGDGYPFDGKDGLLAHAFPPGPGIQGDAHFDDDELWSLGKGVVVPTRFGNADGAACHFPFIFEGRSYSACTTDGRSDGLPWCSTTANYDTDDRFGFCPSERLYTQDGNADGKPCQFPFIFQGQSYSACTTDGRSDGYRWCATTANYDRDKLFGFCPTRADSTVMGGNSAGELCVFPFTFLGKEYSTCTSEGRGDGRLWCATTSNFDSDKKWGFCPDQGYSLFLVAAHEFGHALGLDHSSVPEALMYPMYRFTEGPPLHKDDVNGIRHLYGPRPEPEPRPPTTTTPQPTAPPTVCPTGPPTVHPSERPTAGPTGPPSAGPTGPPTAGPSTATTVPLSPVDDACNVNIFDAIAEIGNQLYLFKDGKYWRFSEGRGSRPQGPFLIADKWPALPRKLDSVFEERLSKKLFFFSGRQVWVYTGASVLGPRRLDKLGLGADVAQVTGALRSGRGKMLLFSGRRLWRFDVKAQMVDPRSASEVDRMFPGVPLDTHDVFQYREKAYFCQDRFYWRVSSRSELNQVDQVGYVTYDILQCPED

[3] = target: T1, MMP-9; experiment: Protease specificity of peptide anchor (MMP-9 versus Cathepsin B and HNE); assay type: biochemical
Description: A) The cumulative liberation of ibuprofen (LIbu) increased corresponding to the increase in the MMP-9 concentrations. Absence of diffusion-driven basal release in the absence of MMP9 protease (bottom line). B) The specificity of GPRSLSGRRCG (SEQ ID NO: 20) sensitivity to MMP-9 compared to Cathepsin B and HNE. Error bars represent standard error of the means of n=4 replicates.
FIG. 9 supports the hypothesis that protease-sensitive drug release can be achieved from an ibuprofen-conjugated PEG hydrogel upon exposure to clinically relevant protease concentration of 1 ug/ml. […] LC-MS analysis confirmed the presence of the liberated ibuprofen bearing fragment (ibu-GPQG, LC peak at elution time of 14.6 min, MS peak at m/z=546.20) in the supernatant collected after 2 days of hydrogel exposure to MMP9 solution (FIG. 9B). In contrast, this peak is absent from the supernatant collected when the hydrogel was exposed to a control buffer without MMP9. Since the concentration of active MMP9 in human wound fluid falls within the range of 0.3-4.8 μg/ml, our data in FIG. 10A support the feasibility of drug release at a clinically relevant protease concentration.
Target sequence in this assay (P14780 94-707): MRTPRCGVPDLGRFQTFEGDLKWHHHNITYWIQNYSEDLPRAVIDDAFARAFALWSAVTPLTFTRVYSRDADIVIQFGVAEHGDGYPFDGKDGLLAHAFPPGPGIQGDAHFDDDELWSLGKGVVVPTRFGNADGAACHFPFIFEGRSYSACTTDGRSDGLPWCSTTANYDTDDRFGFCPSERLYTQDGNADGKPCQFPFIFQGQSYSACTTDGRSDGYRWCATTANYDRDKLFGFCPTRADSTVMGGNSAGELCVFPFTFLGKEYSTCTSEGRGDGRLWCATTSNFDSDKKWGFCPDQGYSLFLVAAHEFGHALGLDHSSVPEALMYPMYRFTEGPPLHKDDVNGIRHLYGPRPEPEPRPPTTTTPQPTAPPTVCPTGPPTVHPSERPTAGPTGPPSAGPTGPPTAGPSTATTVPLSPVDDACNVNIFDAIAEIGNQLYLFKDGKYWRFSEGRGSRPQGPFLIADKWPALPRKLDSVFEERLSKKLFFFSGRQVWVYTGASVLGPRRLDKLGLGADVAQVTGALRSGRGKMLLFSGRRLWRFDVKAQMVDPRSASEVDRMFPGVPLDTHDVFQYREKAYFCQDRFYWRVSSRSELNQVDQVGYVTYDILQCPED

[4] = Tube-inversion gelation screening of peptide crosslinkers with PEG-VS and ibu-PLGA particles; assay type: physicochemical
Method: Peptide-crosslinked hydrogels were prepared by reacting 4-arm poly(ethylene glycol)-vinyl sulfone (PEG-VS) (20 kDa, Sigma Aldrich, St. Louis, Mo., USA) with bis-cysteine peptides (Genscript, Hong Kong) in stoichiometric ratio. Each precursor was dissolved in either triethanolamine (TEOA) buffer (0.3M) or PBS/NaOH buffer (pH=10). Typically, to prepare 117 μL of peptide-crosslinked hydrogels with 4.2% (w/v) PEG content, 5 mg of PEG-VS was dissolved in 100 μL of a buffer solution in a glass vial and mixed with a stoichiometric amount of a peptide crosslinker dissolved in 17 μL of the same buffer solution. Hydrogels with 4.2% (w/v) PEG content were evaluated in the preliminary screening of peptide crosslinkers. Hydrogels with 1.7% (w/v) PEG content were used in all subsequent in vitro and in vivo experiments. To form hybrid hydrogels consisting of PLGA particles (with or without ibuprofen) embedded in peptide-crosslinked hydrogels, the aforementioned precursors were dissolved separately in a buffer solution containing suspended PLGA particles at a concentration of 5% (w/v).
To identify an optimal peptide crosslinker for GEL-iP, we performed qualitative screening of 8 peptide sequences (Table 3 and FIG. 14) by evaluating the influence of substrate and spacer choices on the gelation and cleavability of hybrid hydrogels. In addition, buffers in which gelation occurred was also investigated because their environmental pH might affect the deprotonation of thiols and subsequently influence the crosslinking process. For each combination of substrate, spacer and buffer, the feasibility of gelation was visually inspected via a tube-inversion method. A stoichiometric amount of a peptide crosslinker was added to a glass vial containing a mixture of PEG-VS solution and suspended ibu-PLGA particles. In a parallel experiment, another vial with the same mixture composition, but without the peptide crosslinker of interest, was used as a control. The two vials were inverted at regular intervals until the mixture in one vial stopped flowing despite gravity indicating successful gelation. An example of the successful gelation of a typical hybrid hydrogel was captured in photographs of glass vials A1 and A2 (FIG. 2). […] This solid white appearance resulted from the white ibu-PLGA particles. In the absence of any peptide crosslinker, the precursor mixture in the control vial A2 remained free-flowing, indicating absence of gelation.

[5] = tested on: MMPs; experiment: PMA skin inflammation mouse model, MMP activity by MMPSense fluorescent imaging; assay type: in vivo; settings: 24 hours after subcutaneous PMA injection
Method: (§1) We established a mouse model of skin inflammation using phorbol 12-myristate 13-acetate (PMA) as a stimulant (FIG. 12A) which could induce the upregulation of MMPs captured by MMPSense probe. At the PMA injection sites 24 hours post PMA injection, we observed a red area whose extent was associated with the increase in PMA amounts injected (FIG. 12B). […] In addition, there was a basal of amount of MMP which generated the lowest fluorescent signal at PMA-free PBS buffer injection site. Thus, as more PMA was subcutaneously injected, the fluorescent intensity rose; and more importantly this increase in signal intensity correlated with the extent of the red area on the dorsal side of mice. Protein expression was also studied as skin tissue at the PMA injection sites were retrieved for MMP-9 quantification using ELISA kit (FIG. 12E). […] Overall, PMA subcutaneous injection with increasing amounts could induce subcutaneous inflammation with increasing levels of severity, resulting in more MMP-9 secretion.

[6] = tested on: MMP-9; experiment: PMA skin inflammation mouse model, MMP-9 quantification in skin tissue by ELISA; assay type: in vivo; settings: skin tissue at injection site
Method: as §1

[7] = target: T2, HNE (Homo sapiens, UniProt P08246); experiment: Degradation of plural protease-cleavable hydrogel, HNE alone; assay type: biochemical
T2 sequence (P08246 30-267): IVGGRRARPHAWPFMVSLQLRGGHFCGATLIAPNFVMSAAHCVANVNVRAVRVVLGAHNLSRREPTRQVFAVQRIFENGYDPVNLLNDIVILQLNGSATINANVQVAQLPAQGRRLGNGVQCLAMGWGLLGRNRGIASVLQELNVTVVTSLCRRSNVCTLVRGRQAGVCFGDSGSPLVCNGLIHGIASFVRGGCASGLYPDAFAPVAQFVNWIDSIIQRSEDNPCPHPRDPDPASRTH
Method: (§2) A) Schematic of the mechanism of dual protease-responsive combinational hydrogel system. B) Photographs show the cleavability of H2-M2 combinational hydrogels over 24 hours (n=3). (i) Control, (ii) With HNE protease; (iii) With MMP-9 protease; and (iv) With both HNE and MMP-9 proteases. C) Quantification of the average number of PLGA particles released from combinational hydrogels in the presence of zero, single or dual proteases over 24 hours (n=3). Error bars represent s.e.m of n=3 replicates. p-values were determined by one-way ANOVA with Tukey post-hoc analysis. (***) and (ns) denote p≤0.001 and p≥0.05 (not significant) respectively.

[8] = target: T1, MMP-9; experiment: Degradation of plural protease-cleavable hydrogel, MMP-9 alone; assay type: biochemical
Method: as §2
Target sequence in this assay (P14780 94-707): as the sequence (P14780 94-707) above

In the case of `CC(C)Cc1ccc(C(C)C(=O)O)cc1` (stereo not drawn) [ibuprofen], the “relative metabolic activity of macrophages” value [1] is reported as ~0%.
For “GCRD-LGRM↓GLPGK-DRCG (GCRDLGRMGLPGKDRCG; GCRD-LGRMGLPGK-DRCG) [peptide (6), spacer GCRD, same substrate as peptide (2)]”, the “cleavability of hybrid hydrogel crosslinked with the peptide by MMP-9” value (from here on “cleavability”) [2] was “not cleaved”.
With “GCRD-GPQG↓IWGQ-DRCG (GCRDGPQGIWGQDRCG; GCRD-GPQGIWGQ-DRCG) [peptide (5), spacer GCRD]” the “cleavability” value [2] was “could be digested by MMP-9”.
With “GCRR-LGRM↓GLPGK-RRCG (GCRRLGRMGLPGKRRCG; GCRR-LGRMGLPGK-RRCG) [peptide (2), spacer GCRR, same substrate as peptide (6)]” the “cleavability” value [2] was “not cleaved”.
For “GCRD-KGPRS↓LSGK-DRCG (GCRDKGPRSLSGKDRCG; GCRD-KGPRSLSGK-DRCG) [(7)]”, the “cleavability” value [2] was “could be digested by MMP-9; also recorded: successful hydrogel cleavage by MMP-9”.
For GPRSLSGRRCG (GPRSLSGRRCG), the “specificity toward MMP-9 compared to cathepsin B and HNE” value [3] was “good specificity toward MMP-9”.
In the case of “GCRR-GPQG↓IWGQ-RRCG (GCRRGPQGIWGQRRCG; GCRR-GPQGIWGQ-RRCG) [peptide (4), spacer GCRR]”, the “cleavability” value [2] is reported as “could be digested by MMP-9; also recorded: successful hydrogel cleavage by MMP-9”.
With “GCRD-AVRW↓LLTA-DRCG (GCRDAVRWLLTADRCG; GCRD-AVRWLLTA-DRCG) [peptide (8)]” the “gelation by crosslinking with PEG-VS” value ([4]; PBS/NaOH buffer) was “preventing gelation” and the “gelation by crosslinking with PEG-VS” value ([4]; TEOA buffer) was “preventing gelation”.
With “GCRR-KGPRSLSGK-RRCG (GCRRKGPRSLSGKRRCG; GCRR-KGPRSLSGK-RRCG) [peptide (1)]” the “cleavability” value [2] was “could be digested by MMP-9; also recorded: successful hydrogel cleavage by MMP-9”.
For `CCCCCCCCCCCCCC(=O)O[C@@H]1[C@@H](C)[C@@]2(O)[C@@H](C=C(CO)C[C@]3(O)C(=O)C(C)=C[C@@H]23)[C@@H]2C(C)(C)[C@]12OC(C)=O` [PMA, phorbol 12-myristate 13-acetate], the “MMP activity (fluorescent signal), difference 4 μg versus 0.4 μg of PMA” value [5] was 1.9 fold, the “amount of MMP-9 secreted, difference 4 μg versus 0 μg PMA” value [6] was 10 fold and the “amount of MMP-9 secreted, difference 4 μg versus 0.4 μg PMA” value [6] was 5 fold.
With GRCR-PMAV↓VQSVP-RCRG [H2] the “preferential cleavage of peptide substrate by HNE” value [7] was “preferentially cleaved”.
In the case of “GCRR-AVRW↓LLTA-RRCG (GCRRAVRWLLTARRCG; GCRR-AVRWLLTA-RRCG) [peptide (3)]”, the “cleavability” value [2] is reported as “not cleaved”, the “gelation by crosslinking with PEG-VS” value ([4]; PBS/NaOH buffer) is reported as “could induce gelation” and the “gelation by crosslinking with PEG-VS” value ([4]; TEOA buffer) is reported as “not”.
In the case of GRCR-GPRS↓LSG-RCRG [M2], the “preferential cleavage of peptide substrate by MMP-9” value [8] is reported as “preferentially cleaved”.
